From the supplement of paper PMC12042874
± gives the uncertainty stated by the source.

Assay: amyloid nucleation score (Sup35N fusion, yeast selection) (log enrichment); library NNK3; higher = more nucleation; inactive = no reads after selection
Outline: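 On medium lacking adenine and uracil, psi-negative yeast expressing peptides of 20 random codons fused to Sup35N were grown 7 days at 30°C after a 24-hour induction with 100 μM copper sulfate. Illumina sequencing of input and output plasmid inserts gave the reads, and sequences under 100 input reads were excluded. The nucleation score is the DiMSum log enrichment of output over input reads, centred on the mode score of non-aggregating sequences.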

| Substance | amyloid nucleation score |
| --- | --- |
| LSGDLVCRKVFTRRCTSKWL | inactive |
| SRSDKNHRNVANLNGVWCVT | inactive |
| GTRMNGSGFVKRAL | inactive |
| VYTTS | inactive |
| SAVLPLALVGHDTPNRAQLN | inactive |
| NLPHRLVTNRMCGAGGFGII | inactive |
| HNFLIMWKSVVVLAVAISAK | 0.627 ± 0.18 |
| NIIKTLAVRSGRRFRFLVRW | inactive |
| INWCSVTDRCHKGMCLKSAG | inactive |
| MICAGVMIGYALFYFQIWSC | inactive |
| ALFAGLIECQCDNILGPETG | inactive |
| ACSLSWCHTGCY | inactive |
| SQVFTVALNVPNNR | inactive |
| AYLFLLWSW | inactive |
| LCPVGCFRCATGPFVKCDVY | inactive |
| QAIQPSMQGLWQRALTSRSP | inactive |
| SELTEVTSITDWF | inactive |
| GENWDCTCVADQCRNWTCYL | 0.282 ± 0.81 |
| FHYLMMTFIV | inactive |
| PFPFSNLLERV | 0.364 ± 0.34 |
| FLVDVYSCVCSILLWV | inactive |
| SMNACSRNGLGMWKVMDLFT | inactive |
| SMYDKGMGYTCVKSSVNLFV | inactive |

| Substance | amyloid nucleation score |
| --- | --- |
| HNGDRVDY | inactive |
| FMYLT | inactive |
| YFVIIYWLAPHHSNLLISFP | inactive |
| ALPREPESVLG | inactive |
| GSMMSCWRLAESWVVSKPPG | inactive |
| RYVIIMS | inactive |
| NRWEFVHLLSYWNKSCDLCC | inactive |
| DSTVTSE | inactive |
| WVRVVFSGSRYRTVCSGSRC | -0.788 ± 1.4 |
| NLAIL | inactive |
| RCQRVGI | inactive |
| STTLWAIALGLYNTVYSLAN | inactive |
| ILDDSSWNSLTANVVVWTYF | -1.05 ± 1.3 |
| SLAIMCCKIWPLLIMYILIT | inactive |
| PSQAFS | inactive |
| DHVLNRPYYDNNLKYYDTWL | inactive |
| AGCAIALLYGWESLRAVFL | inactive |
| DPSPGYLLSY | inactive |
| CLRVICCFWKRPGFDWYLEM | inactive |
| TGQYMYKWSGLRWSYGGTFA | inactive |
| TKEAY | inactive |
| GDMVCFVLMKALV | inactive |
| YEHRCCHSNIDIFGLQSRNV | inactive |

| Substance | amyloid nucleation score |
| --- | --- |
| KDELCH | 1.81 ± 0.11 |
| RYFVRYVRSVLTSG | inactive |
| FVTVVGGLRWNVTFSERWSV | 0.081 ± 0.61 |
| YRPVQSVQIVHLLSILILVW | inactive |
| NPSTLYCGSLHSLVLRSFLI | inactive |
| SVVSCMWMWHLVRYKH | -0.509 ± 1.8 |
| QFFSISIFTWVYLVENVADI | inactive |
| VSCYVTHISYRSSFGSMFYS | inactive |
| VIKTLVSWTYISCRLN | inactive |
| MVFSAICITHFTKI | inactive |
| PGISRNFVNGPRWSMFS | inactive |
| HVIKNFSADISIDDFFYLGM | inactive |
| LREQGRNTSR | inactive |
| TRPSTIHFPVWFVGKSCRCD | inactive |
| CVSDLCSW | inactive |
| NSLWSYMGTVLFNPFWLVWR | inactive |
| VFHWSKLSFVEYHGKCGRSS | inactive |
| SFFTYRPQMMRCLSAIYTRM | inactive |
| LSLFSRSASFSSSLHMAMYH | inactive |
| SSSTVYISVLVINHIDGSIR | 2.42 ± 0.051 |
| KPSFDPFKN | inactive |
| FVSLHTRLGDLHDVVCTLVF | inactive |
| MAPVGL | inactive |

| Substance | amyloid nucleation score |
| --- | --- |
| IWIGFPFLSSSGGPMYPL | inactive |
| SVNWWTVLCVHCPGYKNLLI | 0.465 ± 0.26 |
| MPYMW | 0.73 ± 0.29 |
| KHRWVQLLWCWYFTGSQYRI | inactive |
| QYNPLDCCNVRLKLYGPLMV | inactive |
| ENVARGAMFCPMHRGFQSSE | inactive |
| NLYRRYHVHSKRALSIYSTP | -0.033 ± 0.23 |
| LSAATYPL | inactive |
| KGQDCNVLNSNYESSIVGDL | inactive |
| NVQRNVNAE | inactive |
| GYYYNSMNFRWFIKMVVMVR | inactive |
| TYGQLCIKVTGLGHFYRPMG | 0.922 ± 0.18 |
| RSIGIAFLGIVGVYNMLASQ | -0.195 ± 0.59 |
| CGLQLQCMVEVLVVCPEQLL | 0.737 ± 0.16 |
| NRFVDLGGQHDTHCVRGYGL | inactive |
| SHHSL | inactive |
| HNLLEETLTWCNIGRGWDD | inactive |
| VAPWKKPLPMKVTSAQFPNR | inactive |
| GSGLLE | inactive |
| LLVPILCPFKV | inactive |
| MVKLCALSCSIALDPIQTFK | 0.426 ± 0.19 |
| WNFWNNFKSLEWEVLARYFF | inactive |
| VPLPEGFHNRTSNCIFFINE | 0.932 ± 0.12 |

| Substance | amyloid nucleation score |
| --- | --- |
| VIDVFSRDLSMLIFSFGHMK | 1.12 ± 0.089 |
| TRNWLDSRKLD | inactive |
| NGNNLIRVFVWYYDNS | 2.99 ± 0.08 |
| DRISSNDMCGWESGVISIHD | inactive |
| VVSAGIAFPWTGLS | inactive |
| LDEIWIKDFSMSSHVAGRHS | inactive |
| IPLDRMCFFSMK | inactive |
| RFVGVATTSFLTVTFGLVCE | inactive |
| TSCGISSSAGFSVFMSEGAK | 0.692 ± 0.13 |
| YCRSSPTLTFCQYSL | inactive |
| ISNHLVVEYVRWIKSKLLGR | inactive |
| LLVCVFFGVLKIYFIVAIRW | inactive |
| WCPTGEYRKCYNMSFARW | inactive |
| TGVRMWFVG | inactive |
| GDCCHMADKTGGGTNRQIYH | inactive |
| PFNLPMARNETWGTVQAKIR | inactive |
| PMLVALWCMGKTN | -0.521 ± 1.4 |
| FRVHLFFGKWRVVVCTR | inactive |
| YIPGGFRNFGMV | inactive |
| AQYLLYINDPCTCVVATPCR | inactive |
| TLKCQHCIHVLGCVDMLTNF | 1.46 ± 0.11 |
| AYYKCWNNATDLVTNVPPIH | inactive |
| DYTCACLRVRI | -0.047 ± 0.98 |

| Substance | amyloid nucleation score |
| --- | --- |
| GFTVG | inactive |
| GESYDCLLLHSRVWLSVVMG | inactive |
| WQNEMYGRCVLCKLRYNEPD | inactive |
| TCSVCMGQVTMVIRYVNSNC | inactive |
| LCSNLSGDVYELVSHFPGGD | inactive |
| DVNHVMNMNIGSNRN | inactive |
| SKRFSLGI | inactive |
| LAPFLFCRNNF | inactive |
| CFRAGVIFIWGVHNSYYRTS | 2.23 ± 0.082 |
| LYSSNQLFDGGMSFWNDNII | inactive |
| VGTDDVIICILSVKFPLIRP | inactive |
| ISVTNGIMMVPLNGSNLFPS | -0.166 ± 0.62 |
| GLLNRIIVLYTLLNSDIRES | inactive |
| VYSTVF | inactive |
| VCKVCFVERSCVVVVNV | 1.8 ± 0.067 |
| TWLRSYMLYYVVWFF | inactive |
| ECYLEIASDSYINLKFARIE | 0.019 ± 0.73 |
| RTLTSDTHIRFLDQLSRYIW | inactive |
| SCSFRVYYFRLYFMLRSGSV | -0.743 ± 0.82 |
| NFCFDSPLIFPDCQLG | inactive |
| DFKILKVHKSRSSNSGSEDW | inactive |
| SSFYFCFMSCCYGLGFYLEI | inactive |
| SSVSSMRRSHYETMMGRTVG | inactive |

| Substance | amyloid nucleation score |
| --- | --- |
| LGYDRQGLLTEVYRFSYIIL | inactive |
| VVDYNKDQDGAMTASRGDRK | -0.726 ± 1.5 |
| LVASSRW | inactive |
| LSLDLSPSNLNPRWFDTPFH | inactive |
| NARHFIRYATFCCQYASRCG | 0.928 ± 0.18 |
| TKASKMTKQIF | inactive |
| VYHTYVVLMGGHLPTSLGVT | 1.8 ± 0.078 |
| RLGVVASPLHSTCIGNLLHG | inactive |
| QTSRT | inactive |
| VHYGNGLRWLGSLVYMGGCI | inactive |
| IVNLL | inactive |
| ITICVSIF | 1.75 ± 0.072 |
| RRGFFYIH | inactive |
| SSRTCK | inactive |
| NRLRV | inactive |
| VWIIEK | 1.99 ± 0.062 |
| RTYHSLVSSEERRWKLKHCY | inactive |
| YYSFFDIFCVITSRANFGRP | 1.28 ± 0.17 |
| RYNNYTSESGPCN | inactive |
| SEAIFMVVGVRYEMELRWM | -0.55 ± 1.4 |
| SFYGHVHMDTCCN | inactive |
| FLSDSLNARS | inactive |
| VCFGWSNSFSAWT | inactive |
